B1: Inhibitor of growth protein 2 (Homo sapiens), Q9H160 (parent)
chain: MLGQQQQQLYSSAALLTGERSRLLTCYVQDYLECVESLPHDMQRNVSVLRELDNKYQETLKEIDDVYEKYKKEDDLNQKKRLQQLLQRALINSQELGDEKIQIVTQMLELVENRARQMELHSQCFQDPAESERASDKAKMDSSQPERSSRRPRRQRTSESRDLCHMANGIEDCDDQPPKEKKSKSAKKKKRSKAKQEREASPVEFAIDPNEPTYCLCNQVSYGEMIGCDNEQCPIEWFHFSCVSLTYKPKGKWYCPKCRGDNEKTMDKSTEKTKKDRRSR
partner: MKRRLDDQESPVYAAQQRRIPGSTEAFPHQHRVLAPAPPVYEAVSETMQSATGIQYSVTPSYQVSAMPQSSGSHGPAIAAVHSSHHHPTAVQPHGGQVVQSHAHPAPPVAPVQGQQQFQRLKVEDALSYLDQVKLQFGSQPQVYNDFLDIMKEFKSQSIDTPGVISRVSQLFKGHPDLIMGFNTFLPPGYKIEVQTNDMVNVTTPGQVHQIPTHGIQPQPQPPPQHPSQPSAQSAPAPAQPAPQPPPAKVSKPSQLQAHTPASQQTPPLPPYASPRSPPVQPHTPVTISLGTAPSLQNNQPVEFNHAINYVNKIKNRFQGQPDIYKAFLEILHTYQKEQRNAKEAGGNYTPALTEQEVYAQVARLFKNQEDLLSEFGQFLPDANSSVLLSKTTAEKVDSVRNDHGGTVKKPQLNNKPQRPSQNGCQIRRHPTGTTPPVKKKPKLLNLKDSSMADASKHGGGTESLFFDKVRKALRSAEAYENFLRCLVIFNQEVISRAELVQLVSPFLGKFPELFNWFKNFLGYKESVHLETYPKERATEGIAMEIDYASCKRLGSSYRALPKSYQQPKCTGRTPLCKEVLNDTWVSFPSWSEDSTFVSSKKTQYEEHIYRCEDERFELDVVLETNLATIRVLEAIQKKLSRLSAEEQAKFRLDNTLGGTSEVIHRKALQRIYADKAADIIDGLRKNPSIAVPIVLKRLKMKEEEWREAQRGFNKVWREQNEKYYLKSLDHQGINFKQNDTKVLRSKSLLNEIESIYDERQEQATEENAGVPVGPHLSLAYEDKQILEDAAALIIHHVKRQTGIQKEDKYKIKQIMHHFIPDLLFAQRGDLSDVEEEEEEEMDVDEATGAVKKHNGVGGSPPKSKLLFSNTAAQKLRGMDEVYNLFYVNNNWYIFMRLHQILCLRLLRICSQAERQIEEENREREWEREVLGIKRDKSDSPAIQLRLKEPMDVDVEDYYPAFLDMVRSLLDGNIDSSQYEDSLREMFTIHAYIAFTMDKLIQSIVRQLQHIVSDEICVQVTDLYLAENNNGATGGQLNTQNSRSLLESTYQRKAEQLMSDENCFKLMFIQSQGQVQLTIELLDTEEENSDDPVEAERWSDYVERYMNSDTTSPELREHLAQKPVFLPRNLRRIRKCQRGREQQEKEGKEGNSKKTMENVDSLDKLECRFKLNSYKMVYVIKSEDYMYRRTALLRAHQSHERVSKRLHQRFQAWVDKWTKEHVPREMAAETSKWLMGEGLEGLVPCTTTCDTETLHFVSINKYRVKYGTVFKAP

Variants of: B1
Details: with sin3a_human SIN3A

Variant | effect of a mutation on the interaction
MLGQQQQQLYSSAALLTGERSRLLTCYVQDYLECVESLPHDMQRNVSVLRELDNKYQETLKEIDDVYEKYKKEDDLNQKKRLQQLLQRALINSQELGDEKIQIVTQMLELVENRARQMELHSQCFQDPAESERASDKAKMDSSQPERSSRRPRRQRTSESRDLCHMANGIEDCDDQPPKEKKSKSAKKKKRSKARQEREASPVEFAIDPNEPTYCLCNQVSYGEMIGCDNEQCPIEWFHFSCVSLTYKPKGKWYCPKCRGDNEKTMDKSTEKTKKDRRSR [K195R] | decreasing interaction
MLGQQQQQLYSSAALLTGERSRLLTCYVQDYLECVESLPHDMQRNVSVLRELDNKYQETLKEIDDVYEKYKKEDDLNQKKRLQQLLQRALINSQELGDEKIQIVTQMLELVENRARQMELHSQCFQDPAESERASDKAKMDSSQPERSSRRPRRQRTSESRDLCHMANGIEDCDDQPPKEKKSKSAKKKKRSKAKQAREASPVEFAIDPNEPTYCLCNQVSYGEMIGCDNEQCPIEWFHFSCVSLTYKPKGKWYCPKCRGDNEKTMDKSTEKTKKDRRSR [E197A] | decreasing interaction
